Source: paper PMC10781510

Molecular target: HIS-MBP-GASZ-ΔMLS (mouse)
Assay: native gel or EMSA; native PAGE of gel-filtration fraction 5, non-reducing and non-denaturing sample buffer (50 mM Tris pH 7.6, 100 mM NaCl, 0.01% DDM), with or without 2% SDS in the loading buffer, Coomassie blue; monomer to dimer

HIS-MBP-GASZ-ΔMLS (domain or fragment)
stoichiometry N: 2
